± gives the uncertainty stated by the source.
B1: Unconventional myosin-Ie, residues 1051 to 1108; numbered along this chain, Q12965 (parent)
chain: PQVPQCKALYAYDAQDTDELSFNANDIIDIIKEDPSGWWTGRLRGKQGLFPNNYVTKI

Variants of: B1
Test: abundance fitness (aPCA) (normalised: wild type 0, dead -1); higher = more abundant; growth selection in yeast, the domain comes from the species named
Settings: Homo sapiens

Variant	abundance fitness
PQVPQCKALYAYDAQDTDELSFNANDIIDIIKEDPSGWWTGRLRGKQGLFPNNYTTKI [V55T]	-0.111 ± 0.052
PQVPQCKALYAYDAQDTDELSFNANDIIDIIKEDPSGWWTGRLRGKQGLFPNNYDTKI [V55D]	-0.777 ± 0.23
PQVPQCKALYAYDAQDTDELSFNANDIIDIIKEDPSGWWTGRLRGKQGLFPNNYSTKI [V55S]	-0.732 ± 0.13
PQVPQCKALYAYDAQDTDELSFNANDIIDIIKEDPSGWWTGRLRGKQGLFPNNYCTKI [V55C]	-0.197 ± 0.063
PQVPQCKALYAYDAQDTDELSFNANDIIDIIKEDPSGWWTGRLRGKQGLFPNNYGTKI [V55G]	-0.94 ± 0.11
PQVPQCKALYAYDAQDTDELSFNANDIIDIIKEDPSGWWTGRLRGKQGLFPNNYPTKI [V55P]	-0.747 ± 0.28
PQVPQCKALYAYDAQDTDELSFNANDIIDIIKEDPSGWWTGRLRGKQGLFPNNYQTKI [V55Q]	-1.02 ± 0.12
PQVPQCKALYAYDAQDTDELSFNANDIIDIIKEDPSGWWTGRLRGKQGLFPNNYMTKI [V55M]	-0.534 ± 0.086
PQVPQCKALYAYDAQDTDELSFNANDIIDIIKEDPSGWWTGRLRGKQGLFPNNYWTKI [V55W]	-0.645 ± 0.066
PQVPQCKALYAYDAQDTDELSFNANDIIDIIKEDPSGWWTGRLRGKQGLFPNNYNTKI [V55N]	-0.632 ± 0.44
PQVPQCKALYAYDAQDTDELSFNANDIIDIIKEDPSGWWTGRLRGKQGLFPNNYETKI [V55E]	-0.945 ± 0.13
PQVPQCKALYAYDAQDTDELSFNANDIIDIIKEDPSGWWTGRLRGKQGLFPNNYATKI [V55A]	-0.387 ± 0.069
PQVPQCKALYAYDAQDTDELSFNANDIIDIIKEDPSGWWTGRLRGKQGLFPNNYITKI [V55I]	-0.27 ± 0.15
PQVPQCKALYAYDAQDTDELSFNANDIIDIIKEDPSGWWTGRLRGKQGLFPNNYVTKD [I58D]	-0.089 ± 0.25
PQVPQCKALYAYDAQDTDELSFNANDIIDIIKEDPSGWWTGRLRGKQGLFPNNYVTKF [I58F]	-0.116 ± 0.084
PQVPQCKALYAYDAQDTDELSFNANDIIDIIKEDPSGWWTGRLRGKQGLFPNNYVTSI [K57S]	-0.323 ± 0.083
PQVPQCKALYAYDAQDTDELSFNANDIIDIIKEDPSGWWTGRLRGKQGLFPNNYVTMI [K57M]	-0.34 ± 0.088
PQVPQCKALYAYDAQDTDELSFNANDIIDIIKEDPSGWWTGRLRGKQGLFPNNYVTWI [K57W]	-0.554 ± 0.065
PQVPQCKALYAYDAQDTDELSFNANDIIDIIKEDPSGWWTGRLRGKQGLFPNNYVTEI [K57E]	-0.266 ± 0.068
PQVPQCKALYAYDAQDTDELSFNANDIIDIIKEDPSGWWTGRLRGKQGLFPNNYVTPI [K57P]	-0.218 ± 0.12
PQVPQCKALYAYDAQDTDELSFNANDIIDIIKEDPSGWWTGRLRGKQGLFPNNYVTVI [K57V]	-0.257 ± 0.06
PQVPQCKALYAYDAQDTDELSFNANDIIDIIKEDPSGWWTGRLRGKQGLFPNNYVTNI [K57N]	-0.143 ± 0.11
PQVPQCKALYAYDAQDTDELSFNANDIIDIIKEDPSGWWTGRLRGKQGLFPNNYVTGI [K57G]	-0.391 ± 0.047

Variant	abundance fitness
PQVPQCKALYAYDAQDTDELSFNANDIIDIIKEDPSGWWTGRLRGKQGLFPNNYVTLI [K57L]	-0.442 ± 0.098
PQVPQCKALYAYDAQDTDELSFNANDIIDIIKEDPSGWWTGRLRGKQGLFPNNYVTQI [K57Q]	-0.315 ± 0.048
PQVPQCKALYAYDAQDTDELSFNANDIIDIIKEDPSGWWTGRLRGKQGLFPNNYVTYI [K57Y]	0.151 ± 0.087
PQVPQCKALYAYDAQDTDELSFNANDIIDIIKEDPSGWWTGRLRGKQGLFPNNYVTTI [K57T]	-0.365 ± 0.1
PQVPQCKALYAYDAQDTDELSFNANDIIDIIKEDPSGWWTGRLRGKQGLFPNNYVTDI [K57D]	-0.295 ± 0.1
PQVPQCKALYAYDAQDTDELSFNANDIIDIIKEDPSGWWTGRLRGKQGLFPNNYVTAI [K57A]	-0.337 ± 0.05
PQVPQCKALYAYDAQDTDELSFNANDIIDIIKEDPSGWWTGRLRGKQGLFPNFYVTKI [N53F]	0.071 ± 0.1
PQVPQCKALYAYDAQDTDELSFNANDIIDIIKEDPSGWWTGRLRGKQGLFPNTYVTKI [N53T]	-0.275 ± 0.097
PQVPQCKALYAYDAQDTDELSFNANDIIDIIKEDPSGWWTGRLRGKQGLFPNQYVTKI [N53Q]	-0.07 ± 0.088
PQVPQCKALYAYDAQDTDELSFNANDIIDIIKEDPSGWWTGRLRGKQGLFPNPYVTKI [N53P]	-0.516 ± 0.12
PQVPQCKALYAYDAQDTDELSFNANDIIDIIKEDPSGWWTGRLRGKQGLFPNGYVTKI [N53G]	-0.027 ± 0.043
PQVPQCKALYAYDAQDTDELSFNANDIIDIIKEDPSGWWTGRLRGKQGLFPNKYVTKI [N53K]	-0.066 ± 0.089
PQVPQCKALYAYDAQDTDELSFNANDIIDIIKEDPSGWWTGRLRGKQGLFPNMYVTKI [N53M]	0.075 ± 0.072
PQVPQCKALYAYDAQDTDELSFNANDIIDIIKEDPSGWWTGRLRGKQGLFPNHYVTKI [N53H]	-0.012 ± 0.078
PQVPQCKALYAYDAQDTDELSFNANDIIDIIKEDPSGWWTGRLRGKQGLFPNAYVTKI [N53A]	-0.147 ± 0.056
PQVPQCKALYAYDAQDTDELSFNANDIIDIIKEDPSGWWTGRLRGKQGLFPNCYVTKI [N53C]	-0.021 ± 0.054
PQVPQCKALYAYDAQDTDELSFNANDIIDIIKEDPSGWWTGRLRGKQGLFPNVYVTKI [N53V]	-0.176 ± 0.063
PQVPQCKALYAYDAQDTDELSFNANDIIDIIKEDPSGWWTGRLRGKQGLFPNSYVTKI [N53S]	-0.262 ± 0.052
PQVPQCKALYAYDAQDTDELSFNANDIIDIIKEDPSGWWTGRLRGKQGLFPNDYVTKI [N53D]	0.016 ± 0.052
PQVPQCKALYAYDAQDTDELSFNANDIIDIIKEDPSGWWTGRLRGKQGLFPNEYVTKI [N53E]	-0.078 ± 0.066
PQVPQCKALYAYDAQDTDELSFNANDIIDIIKEDPSGWWTGRLRGKQGLFPNYYVTKI [N53Y]	-0.22 ± 0.1
PQVPQCKALYAYDAQDTDELSFNANDIIDIIKEDPSGWWTGRLRGKQGLFPNWYVTKI [N53W]	-0.151 ± 0.058
PQVPQCKALYAYDAQDTDELSFNANDIIDIIKEDPSGWWTGRLRGKQGLFPNLYVTKI [N53L]	-0.188 ± 0.054

From the Human Domainome abundance scans (Beltran et al. 2025)
